Like-named read-outs stand apart in the source and are kept apart here.

Test in all cases: FRET or BRET
Assay [1] concerns the target S. oneidensis RNA polymerase core (α, β, β′, ω), assembled in vivo (Shewanella oneidensis MR-1) (UniProt Q8EK47).
For assay [2] the target is unchanged. The source holds these as a separate data set.
Assay [3] has the same target. This is another data set of the same source.

In the case of “Cy3B-labelled single-cysteine S. oneidensis σ^70 derivative N399C (from UniProt Q8EHE1 1-616) (natural protein)”, the initial σ^70 retention (%) in assay [1] was found to be 45%; in assay [3], 59%. The σ^70 retention half-life in assay [1] is 0.717 h; in assay [2], 1.33 h; in assay [3], 1.25 h.

The record behind these values is PMC3084661.
